Laboratory results from paper PMC10811338, “2.7 Å cryo-EM structure of human telomerase H/ACA ribonucleoprotein” (Nature Communications, 2024).

B1: dyskerin (natural protein, human (endogenous in HEK293T), UniProt O60832 1-514, looked up)
chain: MADAEVIILPKKHKKKKERKSLPEEDVAEIQHAEEFLIKPESKVAKLDTSQWPLLLKNFDKLNVRTTHYTPLACGSNPLKREIGDYIRTGFINLDKPSNPSSHEVVAWIRRILRVEKTGHSGTLDPKVTGCLIVCIERATRLVKSQQSAGKEYVGIVRLHNAIEGGTQLSRALETLTGALFQRPPLIAAVKRQLRVRTIYESKMIEYDPERRLGIFWVSCEAGTYIRTLCVHLGLLLGVGGQMQELRRVRSGVMSEKDHMVTMHDVLDAQWLYDNHKDESYLRRVVYPLEKLLTSHKRLVMKDSAVNAICYGAKIMLPGVLRYEDGIEVNQEIVVITTKGEAICMAIALMTTAVISTCDHGIVAKIKRVIMERDTYPRKWGLGPKASQKKLMIKQGLLDKHGKPTDSTPATWKQEYVDYSESAKKEVVAEVVKAPQVVAEAAKTAKRKRESESESDETPPAAPQLIKKEKKKSKKDKKAKAGLESGAEPGDGDSDTTKKKKKKKKAKEVELVSE
notes: dyskerin, human, catalytic pseudouridine synthase subunit of H/ACA RNPs; domains NTE, PUA, TruB, CTE; two copies (5’ and 3’) stand in the telomerase H/ACA RNP; residues 1-22 (5’ copy) and 1-42 (3’ copy) are not visible in the map; also called 5’ dyskerin; 3’ dyskerin; source: endogenous, HEK293T cells transfected with TERT and hTR
B2: NHP2 (natural protein, human (endogenous in HEK293T), UniProt Q9NX24 1-153, looked up)
chain: MTKIKADPDGPEAQAEACSGERTYQELLVNQNPIAQPLASRRLTRKLYKCIKKAVKQKQIRRGVKEVQKFVNKGEKGIMVLAGDTLPIEVYCHLPVMCEDRNLPYVYIPSKTDLGAAAGSKRPTCVIMVKPHEEYQEAYDECLEEVQSLPLPL
notes: NHP2, human, core H/ACA protein; two copies (5’ and 3’) stand in the telomerase H/ACA RNP; also called 3’ NHP2; source: HEK293T cells transfected with TERT and hTR

Columns and labels:
[1] = biological target: the molecule itself; experiment: cryo-EM structure; telomerase-DNA-TPT complex assembled in HEK293T cells and purified as a whole, BS3 cross-linked; H/ACA RNP lobe by signal subtraction; 2.7 Å (semi-closed thumb loop) and 3.1 Å (open thumb loop) reconstructions
[2] = biological target: T1, TCAB1 (human (endogenous in HEK293T), UniProt Q9BUR4 1-548); experiment: as above; settings: both partners purified
T1 construct: TCAB1, human, Cajal body localization factor of the telomerase H/ACA RNP; also called Cajal body localization factor; source: HEK293T cells transfected with TERT and hTR
T1 sequence (Q9BUR4 whole entry): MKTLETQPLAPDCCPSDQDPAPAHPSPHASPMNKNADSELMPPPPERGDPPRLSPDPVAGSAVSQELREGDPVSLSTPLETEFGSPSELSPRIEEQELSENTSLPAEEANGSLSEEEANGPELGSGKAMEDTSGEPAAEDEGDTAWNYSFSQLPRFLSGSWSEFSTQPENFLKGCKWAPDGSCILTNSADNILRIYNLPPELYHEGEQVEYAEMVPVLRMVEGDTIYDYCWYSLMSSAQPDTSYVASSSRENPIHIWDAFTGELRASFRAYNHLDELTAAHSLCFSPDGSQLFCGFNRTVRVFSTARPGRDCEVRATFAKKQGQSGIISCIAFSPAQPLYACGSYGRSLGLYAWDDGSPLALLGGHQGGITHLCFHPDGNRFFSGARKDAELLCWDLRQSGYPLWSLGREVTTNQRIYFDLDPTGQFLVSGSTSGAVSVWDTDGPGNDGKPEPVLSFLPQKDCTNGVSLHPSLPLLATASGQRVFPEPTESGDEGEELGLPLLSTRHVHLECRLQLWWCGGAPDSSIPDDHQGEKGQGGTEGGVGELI

Row | Binder | binding result [1] | binding result [2]
1 | B1 | binds | –
2 | B2 | – | binds
